Measurements: US7807620 (TRUSTEES OF COLUMBIA UNIVERSITY IN THE CITY OF NEW YORK, dated 2010)

Molecular target: T1, recombinant native hFSH receptor (human, UniProt P23945 18-695)
T1 construct: whole, on cells
T1 sequence (looked up): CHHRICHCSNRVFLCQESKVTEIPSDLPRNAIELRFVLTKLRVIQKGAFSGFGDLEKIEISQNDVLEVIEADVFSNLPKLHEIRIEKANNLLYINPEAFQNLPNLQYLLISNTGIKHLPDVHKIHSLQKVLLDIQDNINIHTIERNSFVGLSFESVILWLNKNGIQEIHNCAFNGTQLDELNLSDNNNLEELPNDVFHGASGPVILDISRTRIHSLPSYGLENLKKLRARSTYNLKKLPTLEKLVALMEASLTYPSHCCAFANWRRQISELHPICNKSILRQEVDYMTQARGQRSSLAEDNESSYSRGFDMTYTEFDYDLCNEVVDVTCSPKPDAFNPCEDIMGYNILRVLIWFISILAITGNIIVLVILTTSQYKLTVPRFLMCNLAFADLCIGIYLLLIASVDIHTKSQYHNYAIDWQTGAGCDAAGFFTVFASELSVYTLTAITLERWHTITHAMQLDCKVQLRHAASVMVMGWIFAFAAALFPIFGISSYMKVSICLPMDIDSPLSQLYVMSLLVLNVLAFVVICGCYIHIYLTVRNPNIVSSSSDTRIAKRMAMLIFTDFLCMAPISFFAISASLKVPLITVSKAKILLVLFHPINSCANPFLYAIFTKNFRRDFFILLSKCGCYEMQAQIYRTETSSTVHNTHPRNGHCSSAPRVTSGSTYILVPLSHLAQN
Experiment: conclusion drawn from the cAMP bioassay on Y-1 cells expressing the FSH receptor; no direct binding assay described
Protocol: Bioactivity of the hFSH analogues was evaluated using Y-1 cells transfected with the FSH receptor. Y-1 cell cultures were mixed with the fusion protein and native pituitary hFSH (control) at varying concentrations and media was assayed for cAMP activity as described in Bouloux et al, 2001.
Figure 8: FIG. 8: In vitro bioassay of hormone activity. cAMP concentration (fmol/ml) was quantitated in Y1 cells expressing the FSH receptor after treatment with the indicated amount of either pituitary FSH (PFSH) or the FSH analogue, β-hFSH-CTP-α-hFSH (rFSH-CTP).
The bioactivity of the β-hFSH-CTP-α analogue was first assessed by an assay of hFSH receptor activity. In this assay, a recombinant native hFSH receptor is expressed in a suitable host cell and cAMP induction is measured following incubation with hormone (Lindau-Shepard et al, 2001).

B1: β-hFSH-CTP-α-hFSH (ligand)
chain: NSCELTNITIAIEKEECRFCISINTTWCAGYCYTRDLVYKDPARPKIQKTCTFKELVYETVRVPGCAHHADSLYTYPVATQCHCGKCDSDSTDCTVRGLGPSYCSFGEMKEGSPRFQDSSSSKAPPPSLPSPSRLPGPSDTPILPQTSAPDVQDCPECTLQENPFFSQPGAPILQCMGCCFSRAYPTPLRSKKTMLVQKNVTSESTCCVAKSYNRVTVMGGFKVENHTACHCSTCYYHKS
notes: Secreted from CHO-K1 cells and purified on an A201 column; also called β-hFSH-CTP-α analogue; β-hFSH-CTP-α fusion protein
B1: binds.
